The supplement of paper PMC9732359
± gives the uncertainty stated by the source.

Assay: protein stability index of a GFP-peptide fusion (yeast GPS) (PSI 1-4); higher = more stable; sorted into four equal gates, so the index is relative within each strain
How it was run: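 Yeast carrying a pooled library were grown to mid-log phase in leucine-free medium. Each library plasmid expresses Cherry and has a tiled 17-residue yeast protein peptide fused downstream of GFP. Cells were sorted into four equal gates by GFP/Cherry ratio, and plasmids from each gate were PCR-amplified, Illumina-sequenced and assigned to strains by barcode. Summing, across gates, the read frequency times the gate number gave each peptide's protein stability index.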

| Sequence | protein stability index (doa10∆) | protein stability index (pdr5∆) | protein stability index (san1∆) | protein stability index (ubr1∆) |
| --- | --- | --- | --- | --- |
| ESVLPAARYDYAVAEQC [QCR2] | 3.15 ± 0.11 | 3.25 ± 0.11 | 2.97 ± 0.11 | 1.98 ± 0.06 |
| NPDDLMKAVRKVAEVKK [RPT4] | – | 3.4 ± 0.25 | – | – |
| ELVKAHLGERAASVIGM [RPC82] | 2.55 ± 0.29 | 2.77 ± 0.28 | 2.57 ± 0.22 | 2.52 ± 0.086 |
| NKLTGKQIVFEIPSETH [RPS7A] | 3 ± 0.09 | 2.95 ± 0.091 | 2.86 ± 0.068 | 2.78 ± 0.11 |
| RSKNLIFNGETLEDALR [GRR1] | 2.92 ± 0.093 | 2.58 ± 0.054 | 2.65 ± 0.057 | 2.77 ± 0.07 |
| MKQYSYLMDSKNVRTRI [RRI1] | – | 2.6 ± 0.26 | – | 2.94 ± 0.22 |
| NNPLLLIVDVKQQGVGL [RPN8] | 1.27 ± 0.14 | 1.87 ± 0.1 | 1.87 ± 0.15 | 2.15 ± 0.1 |
| GISDDENDEEDIYMHDV [RRP4] | 3.33 ± 0.13 | 3.31 ± 0.14 | 2.99 ± 0.12 | 3.46 ± 0.12 |
| EMKIGSIESKLEEHKNH [SMC1] | 3.03 ± 0.15 | 3.22 ± 0.16 | 2.96 ± 0.18 | 3.01 ± 0.099 |
| SSNQSAPVETKKKRFEI [HRT1] | 3.18 ± 0.065 | 3.3 ± 0.079 | 3.08 ± 0.069 | 3.27 ± 0.07 |
| SNVLDGNKNQFEPSISR [LRP1] | 3 ± 0.086 | 2.95 ± 0.074 | 3.12 ± 0.046 | 3.36 ± 0.091 |
| RFKVVKVSGVSLLALWK [RPS23A] | 2.55 ± 0.22 | 1.59 ± 0.14 | 1.71 ± 0.14 | 1.81 ± 0.14 |
| WAVTLDTSRPDLEWQEL [DSN1] | 3.35 ± 0.072 | 3.18 ± 0.065 | 3.13 ± 0.047 | 3.14 ± 0.033 |
| GEICKNYELEKIADNIS [YDL116W/NUP84] | 3.13 ± 0.098 | 3.12 ± 0.084 | 2.96 ± 0.061 | 3.09 ± 0.061 |
| LLSIKLPGKVNTKEEFA [SNF5] | 2.15 ± 0.17 | 1.82 ± 0.083 | 1.78 ± 0.16 | 2.51 ± 0.23 |
| LTGEAEIEQPVTTFVFT [FAS1] | 3.16 ± 0.083 | 2.98 ± 0.067 | 2.64 ± 0.096 | 2.4 ± 0.055 |
| FMKSVIRSREAFSYEQA [DIS3] | 2.28 ± 0.11 | 2.73 ± 0.082 | 2 ± 0.13 | 2.71 ± 0.12 |
| VWAPTQKCFKLTHRLGG [POP1] | 2.2 ± 0.056 | 1.88 ± 0.056 | 2.3 ± 0.085 | 2.47 ± 0.054 |
| VVEEFTPVVLATPIPEE [RPS5] | 2.69 ± 0.13 | 2.27 ± 0.069 | 2.13 ± 0.056 | 2.17 ± 0.049 |
| LDIGLQRTTTGARVFGA [RPL5] | 1.35 ± 0.073 | 1.29 ± 0.096 | 1.31 ± 0.13 | 1.12 ± 0.071 |
| KELMLQSKKLIEEKLSS [YIL149C/MLP2] | 2.95 ± 0.12 | 2.96 ± 0.11 | 2.72 ± 0.11 | 3.05 ± 0.07 |
| RLNNVFVIGEQGKPYIS [RPS4A] | 2.66 ± 0.11 | 3.02 ± 0.094 | 3.1 ± 0.11 | 2.12 ± 0.057 |
| HVKAGKGLIKVNGSPIT [RPS16A] | 2.62 ± 0.065 | 2.78 ± 0.059 | 2.87 ± 0.061 | 3.1 ± 0.051 |
| VKAAINFSNVTDLTNNS [YIL149C/MLP2] | 2.49 ± 0.044 | 3.11 ± 0.049 | 3.35 ± 0.04 | 2.62 ± 0.04 |
| HAPAYHRSKKDQDQYLE [IRR1] | – | 3.56 ± 0.3 | 2.95 ± 0.19 | – |
| IEDVTPVPSDSTRKKGG [RPS14B] | 2.99 ± 0.039 | 3.15 ± 0.045 | 2.96 ± 0.051 | 3.03 ± 0.04 |
